In assay [1] the target is S protein of live MERS-CoV EMC/2012 (MERS-CoV). The experiment in a line: cell-based or functional assay.
Assay [2] concerns the target T1, S protein of live MERS-CoV EMC/2012 (MERS-CoV).
T1 chain: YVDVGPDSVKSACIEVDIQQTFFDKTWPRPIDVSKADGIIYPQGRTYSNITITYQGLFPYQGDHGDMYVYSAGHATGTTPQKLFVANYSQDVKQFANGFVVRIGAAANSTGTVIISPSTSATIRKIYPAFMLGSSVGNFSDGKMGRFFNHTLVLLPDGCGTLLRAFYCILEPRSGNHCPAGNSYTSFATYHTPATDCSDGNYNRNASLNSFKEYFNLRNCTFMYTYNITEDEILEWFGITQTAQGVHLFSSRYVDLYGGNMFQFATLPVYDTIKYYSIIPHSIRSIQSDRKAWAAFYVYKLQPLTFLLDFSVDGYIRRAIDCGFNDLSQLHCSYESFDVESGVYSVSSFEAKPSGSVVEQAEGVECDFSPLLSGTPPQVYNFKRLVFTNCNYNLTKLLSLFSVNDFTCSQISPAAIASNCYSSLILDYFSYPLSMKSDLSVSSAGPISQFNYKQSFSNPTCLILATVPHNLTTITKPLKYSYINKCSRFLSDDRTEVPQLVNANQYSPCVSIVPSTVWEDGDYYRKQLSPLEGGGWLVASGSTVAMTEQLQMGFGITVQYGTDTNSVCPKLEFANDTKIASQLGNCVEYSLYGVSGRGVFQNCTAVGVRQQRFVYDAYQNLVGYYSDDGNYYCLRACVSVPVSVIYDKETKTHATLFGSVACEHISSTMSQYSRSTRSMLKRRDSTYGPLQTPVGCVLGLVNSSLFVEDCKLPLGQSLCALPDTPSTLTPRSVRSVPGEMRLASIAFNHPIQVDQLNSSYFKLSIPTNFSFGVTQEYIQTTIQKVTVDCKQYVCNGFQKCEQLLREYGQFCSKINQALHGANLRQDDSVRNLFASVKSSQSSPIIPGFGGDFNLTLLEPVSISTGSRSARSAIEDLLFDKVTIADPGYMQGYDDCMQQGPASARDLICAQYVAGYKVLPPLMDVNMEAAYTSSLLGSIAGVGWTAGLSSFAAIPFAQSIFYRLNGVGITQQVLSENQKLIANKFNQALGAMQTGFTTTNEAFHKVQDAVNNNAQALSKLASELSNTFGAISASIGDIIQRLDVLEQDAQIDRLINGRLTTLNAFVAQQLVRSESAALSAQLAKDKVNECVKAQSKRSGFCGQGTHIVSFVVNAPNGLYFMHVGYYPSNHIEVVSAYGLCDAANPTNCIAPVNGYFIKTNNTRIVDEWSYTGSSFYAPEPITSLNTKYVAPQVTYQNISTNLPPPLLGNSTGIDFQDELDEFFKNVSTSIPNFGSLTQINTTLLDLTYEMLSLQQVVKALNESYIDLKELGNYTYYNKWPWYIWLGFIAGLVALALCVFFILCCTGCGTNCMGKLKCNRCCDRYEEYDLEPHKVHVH
Put plainly: cell-based or functional assay.

B1: 1F8 IgG1 (antibody, V domains shown)
VH: EVQLVQSGAEVKEPGSSVKVSCKASGGTFGSYAINWVRQAPGQRLEWMGWIDAANGNTKYSQKFQGRVTITGDTSASTAYMELSSLRSEDTAVYYCARDRWMTTRAFDIWGQGTMVTVSS
VL: QPVLTQPPSASGTPGQRVTISCSGSSSNIGSNYVFWYQQLPGMAPKLLISRNNQRPSGVPDRFSGSKSGTSASLAISGPQSEDEADYYCAAWDDSLRGPVFGGGTRVTVL
As to B1, the “IC50 (µg/ml), PRNT50 live virus, wt.” value in assay [1] stood at 4.05 µg/mL.

B2: 3A1 scFvFc (scFv, V domains shown)
VH: QVQLVQSGAEVKKPGSSVKVSCKASGGTFSSYAVSWVRQAPGQGLEWVGRIIPIFGKANYAQKFQGRVTITADKSTSTAYMELSSLRPEDTAVYYCARDQGISANFKDAFDIWGQGTTVTVSS
VL: ETTLTQSPATLSVSPGERATLSCRASESVGSNLAWYQQKPGQAPSLLIYGASTRATGIPDRFSGSGSGTDFTLTISSLQSEDFAAYYCQQYNNWPLTFGPGTKVEIK
As for B2, the “IC50 (µg/ml), PRNT50 live virus, wt.” value in assay [1] was 1.46 µg/mL.

B3: 3A1 IgG1 (antibody, V domains shown)
VH: QVQLVQSGAEVKKPGSSVKVSCKASGGTFSSYAVSWVRQAPGQGLEWVGRIIPIFGKANYAQKFQGRVTITADKSTSTAYMELSSLRPEDTAVYYCARDQGISANFKDAFDIWGQGTTVTVSS
VL: ETTLTQSPATLSVSPGERATLSCRASESVGSNLAWYQQKPGQAPSLLIYGASTRATGIPDRFSGSGSGTDFTLTISSLQSEDFAAYYCQQYNNWPLTFGPGTKVEIK
Consider B3, for which, in assay [1], the “IC50 (µg/ml), PRNT50 live virus, wt.” value was determined as 4.5 µg/mL.

B4: 3B12 scFvFc (scFv, V domains shown)
VH: QVQLVQSGAEVKKPGSSVKVSCKASGGTFSSYAISWVRQAPGQGLEWMGGIIPIFGTANYAQKFQGRVTITADKSTSTAYMELSSLRSEDTAVYYCARASYCSTTSCASGAFDIWGQGTLVTVSS
VL: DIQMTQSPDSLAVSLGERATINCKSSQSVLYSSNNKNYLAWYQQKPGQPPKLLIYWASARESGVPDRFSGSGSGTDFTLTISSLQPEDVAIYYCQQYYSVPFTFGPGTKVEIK
Regarding B4, in assay [2], the “IC50 (µg/ml), PRNT50 live virus, wt.” value came out at 1.25 µg/mL.

B5: 3B11 IgG1 (antibody, V domains shown)
VH: QVQLVQSGAEVKKPGSSVKVSCKASGGTFSSYAISWVRQAPGQGLEWMGGIIPIFGTANYAQKFQGRVTITADKSTSTAYMELSSLRSEDTAVYYCARVGYCSSTSCHIGAFDIWGQGTTVTVSS
VL: ETTLTQSPGTLSLSPGERATLSCRASQSVSSSIAWYQQKPGQAPRLLMFDSSTRATGIPDRFSGSGSGTDFTLNISSLEPEDFAVYYCQQYSSSPYTFGQGTKLEIK
In the case of B5, the “IC50 (µg/ml), PRNT50 live virus, wt.” value in assay [1] came to 3.5 µg/mL.

The record behind these values is patent US20210147513A1 (published 2021).
